According to the DeepSol protein solubility set:

Assay: soluble on expression in E. coli; label from the status in PepcDB or PDB records

| Sequence | soluble on expression in E. coli |
| --- | --- |
| MQNNVVDSIIIDVLSASTHEKPLCKVITEERVLKLLDLALGVFKAQKPMVEVNAPIKVCGDIHGQFPDLLRLFHRGGWPPTANYLFLGDYVDRGRFSIETIVLLLAYKVKFPCNFFLLRGNHECEFVNKTYGFYEECQKRYQSVRMYAAFQDVFNWLPLTGLIATKILCMHGGLSPLMTKEFTLDTLRKIERPTEGKEGLVADLLWADPISGLSGFMNNQRGAGCGFGRDSVLNLCSEFQLDLVCRAHQVVQDGYEFFAGRKLVTIFSAPHYCGQFDNCAAFMSCDEKLQCSFEILRPTTGRLEIREKPLLKDETN | not soluble |
| MSRKMTGIVKTFDCKSGKGLITPSDGRKDVQVHISACRQHETEALIPGIRVEFCRINGLRGPTAANVYLS | not soluble |
| MPRTFEEECDFIDRLTDTKFRIKKGFVPNMNVEGRFYVNNSLEQLMFDELKFSCDGQGIGGFLPAVRQIANVASLPGIVGHSIGLPDIHSGYGFSIGNIAAFDVGNPESVISPGGVGFDINCGVRLLRTNLFEENVKPLKEQLTQSLFDHIPVGVGSRGAIPMLASDLVECLEMGMDWTLREGYSWAEDKEHCEEYGRMLQADASKVSLRAKKRGLPQLGTLGAGNHYAEVQVVDEIYDKHAASTMGIDEEGQVVVMLHCGSRGLGHQVATDSLVEMEKAMARDGIVVNDKQLACARINSVEGKNYFSGMAAAANFAWVNRSCITFCVRNAFQKTFGMSADDMDMQVIYDVSHNVAKMEEHMVDGRPRQLCVHRKGATRAFPAHHPLIPVDYQLIGQPVLIGGSMGTCSYVLTGTEQGLVETFGTTCHGAGRALSRAKSRRTITWDSVIDDLKKKEISIRIASPKLIMEEAPESYKNVTDVVDTCDAAGISKKAVKLRPIAVIKG | not soluble |
| GAMGSYDWLPRLSKENFNAAPVTCFPHAPGCEVWDNLGVGMKVEVENTDCDSIEVIQPGQTPTSFWVATILEIKGYKALMSYEGFDTDSHDFWVNLCNAEVHSVGWCATRGKPLIPPRTIEHKYKDWKDFLVGRLSGARTLPSNFYNKINDSLQSRFRLGLNLECVDKDRISQVRLATVTKIVGDRLFLRYFDSDDGFWCHEDSPIIHPVGWATTVGHNLAAPQDYLERMLAGREAMIEVHEDDATIELFKMNFTFDEYYSDGKTNSFVEGMKLEAVDPLNLSSICPATVMAVLKFGYMMIRIDSYQPDASGSDWFCYHEKSPCIFPAGFCSVNNISVTPPNGYDSRTFTWEGYLSDTGAVAAGQHLFHDIIPDHGFEVGMSLECADLMDPRLVCVATVARVVGRLLKVHFDGWTDEYDQWLDCESADIYPVGWCVLVNHKLEGPPR | soluble |
| MYKLDHLNHNTLDESSLELHETPKGYTNVALFGLDSRDGELSGGVRSDSIMIVSINNKTGDVKIISVYRDTLLKQQDGSYEKANAAYSFGGPQEAVAMLNRNLDLDITKYASVNFNSLADIIDILGGVEVELTSEEIFWLNGYTAETSQVVGRQTHTLDENSPGVHNLDGIQAVSYTRIRYTAGDDFKRAERQRIILQKMIQKLKTAGPVKWNKILDQVLPEISTNMTTPDIMKLGLNIFRYKIGETKGFPFDITTSENVIGLEGSYAVAIGHADNVRQLHEQLFGETGYQPSDEVQQISQDVAYLTGVLEHHHHHH | soluble |
| MSLATPDRLTIVNQYVDNVLTKAGDHYHGQSPTPLLADGVDPRTGKQMEWIFPDGRHAVLSNFSAQQNLMRVLVGLSNLSGNPSYKQRAEAIVKYHFQHYQDESGLLIWGGHRFVDLKTLQPEGPSEKEMVHELKNAYPYYDLMFSVDKDATARFIRGFWNAHVYDWKIMETSRHGKYGQKIGALWQSPFEQQPPFFATKGLSFLNAGNDLIYSASLLYKYNKEDGALVWAKRLAQQYVLPRDKATGLGVYQFTQALKRDETTDDADTHSKYGDRAQRQFGPEFGPTALEGNMMLKGRTSTIYSENALMQLQLGKDLGAEGKELLTWTTDGLKAFAKYAYNESDNTFRPMLANGKDLSNYVLPRDGYYGKKGTVIKPYPADNSFLLSYARAYTVLPDAELWRVARGIARAQGLGELGSAPGKDVKVDLATKNNDPYALFALLDLYQASKVKDYLSLAEKVGDNIISTRYQNGFFMAEPNRQYADVDTIEPYALLALEAAVRNQPQSVAPFLNGAGFTEGGYRMEDGSTRVSTRDNEIFLLNVGETLKPNNKKEGHHHHHH | soluble |
| LKDSYVEYTLLYDTIASRISIDEVEAKDGKLRLMKNVWWEYDKLPHMLIAGGTGGGKTYFILTLIEALLHTDSKLYILDPKNADLADLGSVMANVYYRKEDLLSCIETFYEEMMKRSEEMKQMKNYKTGKNYAYLGLPAHFLIFDEYVAFMEMLGTKENTAVMNKLKQIVMLGRQAGFFLILACQRPDA | not soluble |
| MGSDKIHHHHHHMEYVIEMNNITKVFPGIVANDDITLQVKQGEIHALLGENGAGKSTLMNVLFGLYQPEQGEIKIKGKPVKITNPNIANDLGIGMVHQHFMLVHNFTVTENIILGNEPKKNGKIAVEEAAKEIKQLSEQYGLAVDPHAKIEDISVGMQQRVEILKTLYRGAEILIFDEPTAVLTPQEIHELIQIMKKLVQEGKSIILITHKLKEIMEVCDRCTIIRKGKGIGTVDVAETDEHKLAELMVGRQVNFKTEKIEAKPMEEVLSIANLIVHDTRKLPAVKGLDLTVRAGEIVGIAGIDGNGQSELIEAITGLRKVESGSIAIKGKEITNWPVRRITEEGIGHIPEDRHKHGLVLDFSVRDNIVLQTYYKNPFSKKGILNFSKITEKAKALIEQFDVRTPSEQTLARALSGGNQQKAIIAREVDRNPDLLIAAQPTRGLDVGAIEFIHKKLIEQRDNGKAVLLLSLELDEILNVSDRVAVIYEGKIVAIVDAKETNEQQLGLLMAGGTGKEKVNTNG | not soluble |
| MPRTHGYAPIGKRCHGKCNWHARGRINVIGALIGKCLLTVGLFKNNIDADTFLGWTIHDLLPKLPPASIVVMDNATFRKRQDIQNVITRGGHTLEYLPAYSPDLNPIEHKWAQTKAVRKQQNQTVEQLFKIESFYVTLEHHHHHH | soluble |
| MQQLREGAPADVFISADKKNMDKALADGTVGSSVKVATNSMVMVVPQGNPGKVTSVSDLAGKTVVLCDVQVPCGTISKKLQDANGVEIKAASLESSVSDVLGKVVSGEADAGWVYRTDAAAAGNKVEVIDIPHAQEFENSLYAAVSTHSTSPDEAQKLLDLIVSPKMAQVWKDHGFSPAQ | not soluble |
| MGSDKIHHHHHHMENILEIVNLNKSYNGIPALSNINLSVKAGEIHGIVGANGSGKTTLMNILFGNPIIHETGGYQGQIFFKGNRVNFKNCAEAIRQGIGMVHQEFALIPDMTVGENIKLGRENTHSLTDRLFGRKYSFIDWKQDYENAWQTLKRLGISVAVGIKIMDLSVNIRQFIEIAREIDRSDLKLLILDEPTAVLNKNDGLKLIEILKDMSNSEIGIIFISHRLEEVQYVCDKVSVLRDGKLVSQYAKGNIYVNDLAQDMIGHTINKAAAEKREIKNKPLITFKDFSVEMPGEEVKNLNLSVYKGEILGLTSLSGHGKLALGYGMMDMYPVDGEVYYENKKIVKMNARTNIIKGMYVLPDDRQGLGILADQSLESNIVFTGNQIKNMFIRNSAFNFLGFIDHHKTNLHVYKMMLDLDIKCTSIKQKVKELSGGNQQKVCIARALTVDPKLLFVAEPTRGIDISAKEKILNMLIEINRTRNTTIIIASSELDELKRVCDRIAVMVEGKIFKILSPDSPDVDFGLVLSGEEEVDCEKL | not soluble |
| MVGWWPVGRRQAWHRFFPCHRRPALRCDAHSFFAPGKHIMAHRILTLGEITDGFDVVLSDVWGVLHNGVSAFPDAAVALHEARKAGKTVVLITNSPRPAPGVIAQLRVLGVPDEAYDRIITSGDVTRGLIAEGPKKVFLLGPERDMPLLEGLDVERVGEAEAQSVVCTGFFDDETETPEDYTEMLKGFIARKVPMICANPDLVVERGERIIPCAGAMAAYYEQLGGEVRIAGKPHAPIYEACLAAAKDVRGAFAKDRVLAIGDGMPTDVKGAIASGLNLLYISGGIHAAEYTLNGQTDEALLNAYLKGQGAAPGWWMPRLA | not soluble |
| MSLERAVPLAVPLGQTEVFQALQRLHMTIFSQSVSPCGKFLAAGNNYGQIAIFSLSSALSSEAKEESKKPVVTFQAHDGPVYSMVSTDRHLLSAGDGEVKAWLWAEMLKKGCKELWRRQPPYRTSLEVPEINALLLVPKENSLILAGGDCQLHTMDLETGTFTRVLRGHTDYIHCLALRERSPEVLSGGEDGAVRLWDLRTAKEVQTIEVYKHEECSRPHNGRWIGCLATDSDWMVCGGGPALTLWHLRSSTPTTIFPIRAPQKHVTFYQDLILSAGQGRCVNQWQLSGELKAQVPGSSPGLLSLSLNQQPAAPECKVLTAAGNSCRVDVFTNLGYRAFSLSEGHHHHHH | not soluble |
| MGSDKIHHHHHHMQWDVIVVGGGPSGLTMAAELAGSGVRTLVLERRTDGVQSRAGTIMPRVLELLDARGIAHRFIEKTRAISNYPFRPSHIWAGFHPINWKYLESRFGFTLGLPQNHTEEILGAWAAECGAEIRTGMEVLDVRQSDDAVEIDVLDVAGTVATLHARYAVGADGGRSVVRNRLGLPFEGHSGTFRGIVIDAELHAPWPGGRVNVDNEMGWVRGYVFGDGVTRFNIVHRDRRHAPKDEPVTLEEALQCIRDVHGTDYGIRAFRWASRFDDQMRMVSSLRKGRVFLVGESARIHYPASGVGMNFCLQDAFNLGWKLANVINGVADPSTLDTYDAERLPVMHALLESVKAQCALQFNFEPDAVALKRRMQEHIIPLPDVQRKLVLELSGLEAPYPRAPSSHSLTGQRCPDLDLLLPDGSAVAVTQTLRERRFVLLDLEGFSRQFAALNLSGWPVTVLAARAARIPASMEGVKALLLRPDGYVAWAATDVAQAAEAEAQLAKWLKR | not soluble |
| MSLDETPTIHILWINAGLSCDGDSVALTAAMQPSIEEIVLGVLPGLPKIAVHWPLIDFECGPVGGSDTFIEWFFKGERGEIDPFVLVVEGSIPNESIKPEGYWCGFGDNPETGQPITTSEWIDRLAPKALAVVAIGTCATYGGIHAMAGNPTGAMGVPDYLGWDWKSQAGIPIVCVPGCPIQPDNFSETLTYLLYQAAGAAPMIPLDDKLRPTWLFGATVHEGCDRAGYYEQGQFALTYDSPKCLVKLGCWGPVVKCNVPKRGWMNGIGGCPNVGGICIACTMPGFPDKFMPFMDEPPGAKVSSSASGAYGAVVRKLRTLTARTVDKEPKWRHTGDRITTGYREGHHHHHH | not soluble |
| MEKQVRVRYAPSPTGHLHIGNARTALFNYLFARHQDGKFIIRIEDTDVKRNVAGGEESQLKYLKWLGMDWDEGVDVGGEFGPYRQTERLDIYKKLYEDLLERGLAYKCYMTEEELEAEREGQIARGETPRYAGNHRDLTEAQVKEFEAEGRIPSIRFRVPADRDYTFKDIVKDEVAFHSNDFGDFVIVKKDGIPTYNFAVAVDDHLMEITHVLRGDDHISNTPKQMMIYEAFGWDIPQFGHMTLIVNESRKKLSKRDESIIQFIEQYKELGYLPEAIFNFIALLGWSPVGEEEIFSQEEFIKMFDAARLSKSPALFDSQKLKWMNNQYMKKQDLDTVVELSLPHLVKAGRIGETLSEQEQAWIRDVIALYHEQMSFGAEIVELSEMFFKDHVDYEEEGQEVLKGEQVPEVLRAFAGQVEALEAMEPAAIKAAIKAVQKETGHKGKNLFMPIRVATTGQTHGPELPNAIALLGKEKVLNRLQKVIG | soluble |
| MAYATVEDMVARFGELEVLQLTDRNNEGLIDREVAQTALVDATAEIDAYLGRFRRPFEDLPPILVRLCCDIARYRLTAAQGVLITDEIRNRYKIDVLDLLRAMAKGEVQLGVDDSGEEVAAGEDGIVFVNGKNKVFGRDH | not soluble |
| MAMPTIRHVRAFIVRGGGADYHDQPGGHWIDDHISTPMARYPEYRQSRQSFGINVLGTLVVEIEASDGTVGFAVTTGGEIGAFIVEKHLARFLEGQLVTDIEKMWDQMYFSTLYYGRKGVVLNTISGVDLALWDLLAKVRKEPVYQLLGGPVRDELVFYATGARPDLAKEMGFIGGKLPLQHGPAEGDAGLRQNLDKLAEMRSRVGDDFWLMYDCWMSLDVPYATRLAQAAHEYGLKWIEECLPPDDYWGYAELRRNVPRGMMVSTGEHEATRWGFRMLLEMQCCDLIQPDVGWCGGITELIKISALADAHNVMVVPHGSSVYSYHFVVTRHNSPFAEFLMMAPKADEVVPMFTPLLLDEPVPVNGRMKVPDAPGFGVRLNPECALVRPYAR | soluble |
